Measured values: publication PMC8402216

Biological target: T1, ErdR (CrbR), 6His-ErdR (Pseudomonas putida KT2440) (UniProt Q88MD8)
T1 sequence: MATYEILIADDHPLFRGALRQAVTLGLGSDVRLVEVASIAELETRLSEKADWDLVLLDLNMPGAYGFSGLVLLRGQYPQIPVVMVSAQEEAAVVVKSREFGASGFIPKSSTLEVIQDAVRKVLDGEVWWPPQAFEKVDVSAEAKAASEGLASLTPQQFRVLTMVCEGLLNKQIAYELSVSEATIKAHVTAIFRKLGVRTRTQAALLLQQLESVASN
Assay: EMSA
Conditions: 10 mM Tris-HCl pH 8, 2 mM MgCl2, 1 mM DTT, 10% glycerol, 12 ng/uL sheared salmon sperm DNA, 2 mM acetyl phosphate when needed; 2.5 ng DNA in 10 uL, 20 min at …

| Sequence | binding | binding signal |
| --- | --- | --- |
| AGCAACGGCAAGGCGATTAACAACTGGTAACAGCCCCCACGAAGGCAAGCGTTAATCTCCATCTAATCCCGATAGTTAAAACTAGCAATACTCGCGGCGCCATAAGCGCCGCGTGCCCCCTCACGACCTTAGACAGGTAA (double strand) [acsA-I (2) promoter] | no binding |  |
| TAGGCGTCCTTTTTGCTCATGAAACTGACCGTATCGCTATGCCGAACTATATATATCTATATATAGGTACCGGCCATGTTGTTCTCTGCCTCCATGGTCGGCTTGCGGCGGGGTGGTGCCCATTGGACGTAAGTCTATGA (double strand) [pp_0354 promoter] | binds | binds |
| AATCGCCTTGCCGTTGCTGGCGAGGTGAATTTTATGGCGCTGGCCAAGGCCGAAACAGTGGGTGTTTTGATAAAGTGTTTTGACAGAATCTGTAACAATCCTGTGGCAAACCCCTCGTTTTTTCGTCGGCAAGGCTGTAA (double strand) [acsA-I (1) promoter] | no binding |  |
| CGCGAACGGGTCATCACTTTGTTACGCAATCGGTAAAACACCGTTGCATCTAAGACTAAGGTCGTCTGGTTGGCGTCCATCGGCAGCATAAAGTAAGGGTGTGGGTTCCATCCCGTATCTGTGCTGCTAGGACAAAAACA (double strand) [yjcH (actP-I) promoter] | binds |  |
